Laboratory results from patent publication US20220119517A1 (NANJING SANHOME PHARMACEUTICAL, published 2022).
Numbering of substitutions follows the chain as printed. Where two headings read alike, the source gives them in different places. Values belong to the binder of their own block, whether it stands above or below them.

Legend:
[1] = biological target: T1, human Claudin18.2 (CLDN18.2), full length, on cells (human); assay: cellular ELISA on fixed HEK293-CLDN18.2 cells
T1 construct: also called CLDN18.2-FL; HEK293-CLDN18.2 cells
Description: (§1) HEK293-CLDN18.1 and HEK293-CLDN18.2 cells were resuscitated two weeks in advance, cultured with DMEM complete culture medium containing 10% fetal bovine serum at 37° C., 5% CO₂. When the cells grew to 80%-90% confluency, they were digested with 0.5 mM EDTA-PBS (Sigma) at room temperature, centrifuged at 1000 rpm for 5 minutes, the supernatant was discarded. Cells were resuspended in DMEM complete culture medium, the cell concentration was adjusted to 6×10⁵ cells/ml. Cells were plated on 96-well cell plates (Corning) pre-coated with polylysine at 2.5 μg/well, 100 μl per well, incubated at 37° C., 5% CO₂ for 24 hours, making cells evenly and completely plated on the bottom of the well. The supernatant was aspirated, and the cells were fixed with 4% paraformaldehyde at room temperature for 20 minutes, washed 3 times with 200 μl PBS, 2 minutes at each time. The well plates were blocked with 200 μl of 3% BSA-PBS at 37° C. for 1 hour. Each chimeric antibody was diluted with 3% BSA-PBS to a concentration of 6 μg/ml, and diluted in a 6-fold gradient to a total of 7 concentrations. At the same time, IMAB362-similar-hG1 diluted in the same concentration gradient as the positive control, and human IgG1, kappa isotype control antibody (hereinafter referred to as Isotype, provided by CrownBio (Taicang) Co., Ltd.) as the negative control were added to HEK293-CLDN18.2 and HEK293-CLDN18.1 cell plates, respectively. The cells were incubated at 37° C. for 1 hour, washed 5 times with PBS. Incubation with HRP-anti human IgG (Jackson) diluted 1:10000 in blocking solution was performed at 37° C. for 1 hour followed by washing 5 times with PBS. 100 μl of TMB one-component color developing solution was added, protected from light at room temperature for 5-10 minutes, terminated with 50 μl of 2M sulfuric acid, OD450 was read on the microplate reader. Data processing: the original data was put into GraphPad 5.0 software for plotting and calculation.

[2] = biological target: T2, human Claudin18.1 (CLDN18.1), full length, on cells (human, UniProt P56856 1-261); assay: cellular ELISA on fixed HEK293-CLDN18.1 cells, HRP-anti human IgG, OD450
T2 construct: HEK293-CLDN18.1 cells carry a fusion with green fluorescent protein (ZsGreen); CHO-K1-CLDN18.1 cells carry pcDNA3.1-CLDN18.1; The cell line is named under assay; also called CLDN18.1-FL; HEK293-CLDN18.1 cells
Description: as §1

[3] = biological target: T1, human Claudin18.2 (CLDN18.2), full …; assay: cell-based or functional assay
[4] = biological target: T1, human Claudin18.2 (CLDN18.2), full …; assay: cell-based or functional assay; remark: listed apart in the source
[5] = biological target: T3, antigen protein Claudin18.2-His (human, UniProt P56856-2 1-261, limits assumed); assay: BLI (Fortebio Octet RED96), antibody on AHC sensor, CLDN18.2 protein in solution, 37 °C
T3 construct: also called CLDN18.2 protein
Description: Another method is to verify the affinity of the humanized antibody above at the protein level. The antibody was immobilized by the AHC sensor, and combined with different concentrations of antigens, and affinity determination was performed according to the manual of Octet RED96.

[6] = biological target: T1, human Claudin18.2 (CLDN18.2), full …; assay: cell-based or functional assay; remark: listed apart in the source
[7] = biological target: T1, human Claudin18.2 (CLDN18.2), full …; assay: cell-based or functional assay; remark: listed apart in the source
[8] = biological target: T1, human Claudin18.2 (CLDN18.2), full …; assay: FACS on NUGC4 cells
Description: (§2) Human gastric cancer cells NUGC4 and stably transfected cells CHO-K1-CLDN18.1 (prepared in Example 5) were used respectively, to verify the specificity and affinity of the anti-CLDN18.2 antibodies above at the cellular level by FAGS technology. After antibody affinity maturation and screening in vitro, each antibody can bind to the CLDN18.2 target on NUGC4 cells, but not to CHO-K1-CLDN18.1 cells, as compared with the original 3CHI antibody.

[9] = biological target: T3, antigen protein Claudin18.2-His; assay: BLI (Fortebio Octet RED96), antibody on AHC sensor, Claudin18.2-His in solution, 37 °C
Description: Next, antibodies were immobilized by the AHC sensor, and then combined with different concentrations of antigens, and determination of the affinity was performed according to the manual of Octet RED96.

[10] = biological target: T1, human Claudin18.2 (CLDN18.2), full …; assay: FACS on NUGC4 cells, positive rate
Description: The effect of the Fc-mutated humanized antibody on the binding to the target CLDN18.2 was identified by FACS. NUGC4 cells were digested using the gastric cancer cell digestion solution at 37° C. for 15 minutes; terminated by the complete culture medium, centrifuged at 1000 rpm for 5 minutes, the supernatant was discarded; the cells were resuspended with 2% fetal bovine serum-PBS diluent, the cells were adjusted to 1×10⁶ cells/ml, 100 μl of cell suspension was added to each well of the 96-well U-shaped-bottom plate; the antibody was diluted with 2% fetal bovine serum-PBS to final concentrations of 5 μg/ml, 1 μg/ml, 0.2 μg/ml, 0.04 μg/ml and 0.008 μg/ml, mixed with the cells in equal volume, incubated at 4° C. for 1 hour; centrifuged at 1000 rpm for 5 minutes, the supernatant was discarded; 200 μl of Cell Stain Buffer (Biolegend) was added to each well to wash twice, centrifuged at 1000 rpm for 5 minutes at each time and the supernatant was discarded; 100 μl of PE-anti human Fc antibody (Biolegend) was added, incubated at 4° C. for 1 hour; washed twice using Cell Stain Buffer (Biolegend), centrifuged at 1000 rpm for 5 minutes at each time and the supernatant was discarded. 300 μl of Cell Stain Buffer was added to resuspend the cells, detected with BD FACS Jazz flow analyzer.

[11] = biological target: T2, human Claudin18.1 (CLDN18.1), full …; assay: FACS on CHO-K1-CLDN18.1 cells
Description: as §2

[12] = biological target: T1, human Claudin18.2 (CLDN18.2), full …; assay: FACS on CHO-K1-CLDN18.2 cells, Graphpad fit
Description: (§3) CHO-K1-CLDN18.2 cells and CHO-K1-CLDN18.1 cells (prepared in Example 5) were digested with gastric cancer cell digestion solution at 37° C. for 15 minutes, respectively; terminated with complete culture medium, centrifuged at 1000 rpm for 5 minutes, the supernatant was discarded; the cells were resuspended with 2% fetal bovine serum-PBS diluent, the cells were adjusted to 1×10⁶ cells/ml, 100 μl of cell suspension was added to each well of the 96-well U-shaped-bottom plate; 2% fetal bovine serum-PBS was used to dilute the humanized antibody and the control antibody to final concentrations of 10 μg/ml, 2 μg/ml, 0.4 μg/ml, 0.08 μg/ml and 0.016 μg/ml, respectively, mixed well with the cells in equal volume, incubated at 4° C. for 1 hour; centrifuged at 1000 rpm for 5 minutes, the supernatant was discarded; 200 μl Cell Stain Buffer (Biolegend) was added to each well to wash twice, centrifuged at 1000 rpm for 5 minutes at each time and the supernatant was discarded; 100 μl of PE-anti human Fc antibody (Biolegend) was added, incubated at 4° C. for 1 hour; washed with Cell Stain Buffer (Biolegend) twice, centrifuged at 1000 rpm for 5 minutes at each time and the supernatant was discarded. 300 μl Cell Stain Buffer was added to resuspend the cells, and detected by BD FACS Jazz flow cytometry analyzer. […]

[13] = biological target: T1, human Claudin18.2 (CLDN18.2), full …; assay: FACS on CHO-K1-CLDN18.2 cells, relative Kd from Graphpad fit
Description: as §3

[14] = biological target: T2, human Claudin18.1 (CLDN18.1), full …; assay: FACS on CHO-K1-CLDN18.1 cells, PE-anti human Fc, MFI
Description: CHO-K1-CLDN18.2 cells and CHO-K1-CLDN18.1 cells (prepared in Example 5) were digested with gastric cancer cell digestion solution at 37° C. for 15 minutes, respectively; terminated with complete culture medium, centrifuged at 1000 rpm for 5 minutes, the supernatant was discarded; the cells were resuspended with 2% fetal bovine serum-PBS diluent, the cells were adjusted to 1×10⁶ cells/ml, 100 μl of cell suspension was added to each well of the 96-well U-shaped-bottom plate; 2% fetal bovine serum-PBS was used to dilute the humanized antibody and the control antibody to final concentrations of 10 μg/ml, 2 μg/ml, 0.4 μg/ml, 0.08 μg/ml and 0.016 μg/ml, respectively, mixed well with the cells in equal volume, incubated at 4° C. for 1 hour; centrifuged at 1000 rpm for 5 minutes, the supernatant was discarded; 200 μl Cell Stain Buffer (Biolegend) was added to each well to wash twice, centrifuged at 1000 rpm for 5 minutes at each time and the supernatant was discarded; 100 μl of PE-anti human Fc antibody (Biolegend) was added, incubated at 4° C. for 1 hour; washed with Cell Stain Buffer (Biolegend) twice, centrifuged at 1000 rpm for 5 minutes at each time and the supernatant was discarded. 300 μl Cell Stain Buffer was added to resuspend the cells, and detected by BD FACS Jazz flow cytometry analyzer.

EC50 [1]: 0.55 nM
binding result [2]: no binding (tested: 6000 ng/ml)
B1: 1CHI (antibody, V domains shown)
VH: QIQLVQSGPELKKPGETVKISCKASGYTFTNYGMNWVKQAPGKGLKWMGWINTYTGEPTYADDFKGRFAFSLETSASTAYLQINNLKNEDMATYFCARDGQLGLRFAYWGQGTLVTVSA
VL: NIMMTQSPSSLAVSAGEKVTMSCKSSQSVLYSSNQKNYLAWYQQKPGQSPKLLIYWASTRESGVPDRFTGSGSGTDFTLTISSVQAEDLAVYYCHQYLSSRTFGGGTKLEIK
notes: Human-murine chimeric antibody with the constant region of human IgG1; also called chimeric antibody of B4B10G3

ADCC activity by luciferase labeling, EC50 [4]: 0.69 nM
ADCC activity by luciferase labeling, Top [4]: 63600
Kd [5]: 9.44 nM
koff [5]: 0.00222 s⁻¹
kon [5]: 235000 M⁻¹ s⁻¹
in-vitro ADCC activity, Jurkat-CD16A/NF luciferase reporter, EC50 [6]: 0.72 nM
in-vitro ADCC activity, Jurkat-CD16A/NF luciferase reporter, Top [6]: 216000
ADCC activity by luciferase labeling, EC50 [7]: 1.49 nM
ADCC activity by luciferase labeling, Top [7]: 89600
MFI (CLDN18.2) [8]: 2180 MFI
Kd [9]: 7.14 nM
koff [9]: 0.000399 s⁻¹
kon [9]: 55900 M⁻¹ s⁻¹
EC50 [10]: 9.78 nM
Top (%) [10]: 58.8%
MFI (CLDN18.1) [11]: 59 MFI
EC50 [1]: 0.09 nM
Bmax (MFI) [12]: 8220 MFI
Kd [13]: 28.7 nM
binding result [14]: no binding
B2: IMAB362-similar-hG1 (antibody, human IgG1, kappa)
heavy: not shown
light: DIVMTQSPSSLTVTAGEKVTMSCKSSQSLLNSGNQKNYLTWYQQKPGQPPKLLIYWASTRESGVPDRFTGSGSGTDFTLTISSVQAEDLAVYYCQNDYSYPFTFGSGTKLEIKRTVAAPSVFIFPPSDEQLKSGTASVVCLLNNFYPREAKVQWKVDNALQSGNSQESVTEQDSKDSTYSLSSTLTLSKADYEKHKVYACEVTHQGLSSPVTKSFNRGEC
notes: Human IgG1/kappa format; also called positive control antibody; positive antibody
ADCC cytotoxicity by LDH method, PBMC effectors, EC50 [3]: 2.47 nM

ADCC activity by luciferase labeling, EC50 [4]: 0.18 nM
ADCC activity by luciferase labeling, Top [4]: 64500
Kd [5]: 0.249 nM
koff [5]: 3.23e-05 s⁻¹
kon [5]: 130000 M⁻¹ s⁻¹
in-vitro ADCC activity, Jurkat-CD16A/NF luciferase reporter, EC50 [6]: 0.22 nM
in-vitro ADCC activity, Jurkat-CD16A/NF luciferase reporter, Top [6]: 215000
MFI (CLDN18.2) [8]: 63700 MFI
Kd [9]: 0.84 nM
koff [9]: 0.000117 s⁻¹
kon [9]: 139000 M⁻¹ s⁻¹
MFI (CLDN18.1) [11]: 49 MFI
Bmax (MFI) [12]: 10800 MFI
Kd [13]: 1.6 nM
binding result [14]: no binding
B3: 330CHI (antibody, human IgG1, V domains shown)
VH: EVKLVESGGGLVQPGGSLKLSCAASGFGFSDYGMAWVRQAPRKGPEWVAFISNSAYSIYYADTVTGRFTISRENAKNTLYLEMSSLRSEDTAMYYCARLGRGNSFAYWGQGTLVTVSA
VL: DIVMTQSPSSLTVTAGEKVTMSCKSSQSLLNSGNQKNYLTWYQQKPGQPPKLLIYWGSTRESGVPDRFTGSGSGTDFTLTISSVQAEDLAVYYCQNELFYPLTFGAGTKLELK
notes: chimeric with the constant region of human IgG1; also called chimeric antibody 330CHI

in-vitro ADCC activity, Jurkat-CD16A/NF luciferase reporter, EC50 [6]: 0.54 nM
in-vitro ADCC activity, Jurkat-CD16A/NF luciferase reporter, Top [6]: 212000
MFI (CLDN18.2) [8]: 2510 MFI
MFI (CLDN18.1) [11]: 76 MFI
EC50 [1]: 0.08 nM
binding result [2]: no binding (tested: 6000 ng/ml)
B4: 3CHI (antibody, V domains shown)
VH: B3 VH with G28T, S54L, R101Y
VL: B3 VL with G57A, E97D, L98Y, F99S
notes: Human-murine chimeric antibody with the constant region of human IgG1; also called chimeric antibody of S5H3B6; original 3CHI antibody
